From patent JP2017222678A (dated 2017) come the findings set out here.

Changes are numbered by the printed parent chain.

Assay [1] concerns the target T1, ヒトTFPI (human tissue factor pathway inhibitor; American Diagnostica) (human, UniProt P10646 29-304, limits assumed).
T1 construct: Coated on plates (ELISA) or amine-coupled to a CM5 chip (Biacore); also called h-TFPI; hTFPI
T1 sequence (looked up): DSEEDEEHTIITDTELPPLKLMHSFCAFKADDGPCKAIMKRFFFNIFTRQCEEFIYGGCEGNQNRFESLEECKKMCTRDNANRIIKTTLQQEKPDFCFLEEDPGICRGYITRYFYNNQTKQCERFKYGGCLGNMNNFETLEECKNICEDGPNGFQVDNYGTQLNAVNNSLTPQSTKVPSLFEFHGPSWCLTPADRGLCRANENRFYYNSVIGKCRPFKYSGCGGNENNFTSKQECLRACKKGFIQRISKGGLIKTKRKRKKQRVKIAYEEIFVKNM
As to the kind of experiment: ELISA, Fab in bacterial lysate on coated human TFPI.

The target of assay [2] is T2, マウスTFPI (mouse TFPI; R&D System) (mouse, UniProt O54819 29-289, limits assumed).
T2 construct: also called m-TFPI; mTFPI
T2 sequence (looked up): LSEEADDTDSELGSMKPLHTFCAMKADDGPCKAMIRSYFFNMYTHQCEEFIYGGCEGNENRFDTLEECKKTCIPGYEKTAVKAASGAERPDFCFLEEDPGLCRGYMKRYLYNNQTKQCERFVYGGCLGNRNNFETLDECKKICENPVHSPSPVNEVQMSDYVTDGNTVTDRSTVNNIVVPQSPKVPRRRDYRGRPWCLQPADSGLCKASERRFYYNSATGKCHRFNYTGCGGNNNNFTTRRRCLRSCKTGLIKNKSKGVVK
Description: ELISA on coated mouse TFPI.

Assay [3] has as its target T1, ヒトTFPI (human tissue factor pathway …). As to the kind of experiment: ELISA on coated human TFPI.

B1: TP-4B7 (Fab, V domains shown)
VH: QVQLQQSGPGLVKPSQTLSLTCAISGDSVSSNSAAWSWIRQSPGRGLEWLGIIYKRSKWYNDYAVSVKSRITINPDTSKNQFSLQLNSVTPEDTAVYYCARWHSDKHWGFDYWGQGTLVTVSS
VL: DIVMTQSPLSLPVTPGEPASISCRSSQSLVFSDGNTYLNWYLQKPGQSPQLLIYKGSNRASGVPDRFSGSGSGTDFTLKISRVEAEDVGVYYCQQYDSYPLTFGQGTKVEIKR
notes: HuCAL Gold human Fab from E. coli TG1
In the case of B1, the binding result in assay [1] is given as “binds”.

B2: TP-3E1 (Fab, V domains shown)
VH: QVQLVESGGGLVQPGGSLRLSCAASGFTFSNYAMTWVRQAPGKGLEWVSVISSVGSNTYYADSVKGRFTISRDNSKNTLYLQMNSLRAEDTAVYYCARPTKAGRTWWWGPYMDVWGQGTLVTVSS
VL: DIELTQPPSVSVAPGQTARISCSGDNIGSYYAYWYQQKPGQAPVLVIYDDSNRPSGIPERFSGSNSGNTATLTISGTQAEDEADYYCQSYDSTGLLVFGGGTKLTVLG
notes: as for B1
Regarding B2, the binding result in assay [1] is “binds”.

B3: TP-4A7 (Fab, V domains shown)
VH: QVQLVESGGGLVQPGGSLRLSCAASGFTFRNYAMNWVRQAPGKGLEWVSVISGSSSYTYYADSVKGRFTISRDNSKNTLYLQMNSLRAEDTAVYYCARADLPYMVFDYWGQGTLVTVSS
VL: B2 VL with N26A, I27L, Y30K, Y31F, Y33H, N52E, S89A, T93G, G94L, L96Y
notes: as for B1
Take B3: the binding result in assay [1] is reported as “binds”.

B4: TP-3H2 (Fab, V domains shown)
VH: QVQLVESGGGLVQPGGSLRLSCAASGFTFNSYYMSWVRQAPGKGLEWVSNISSSGSNTNYADSVKGRFTISRDNSKNTLYLQMNSLRAEDTAVYYCARVHYGFDFWGQGTLVTVSS
VL: DIELTQPPSVSVAPGQTARISCSGDKLGKYYAYWYQQKPGQAPVLVIYGDSKRPSGIPERFSGSNSGNTATLTISGTQAEDEADYYCSSAAFGSTVFGGGTKLTVLG
notes: as for B1
Regarding B4, in assay [1], the binding result is given as “binds”.

B5: TP-3C2 (Fab, V domains shown)
VH: QVQLQQSGPGLVKPSQTLSLTCAISGDSVSSSSAAWSWIRQSPGRGLEWLGMIYYRSKWYNHYAVSVKSRITINPDTSKNQFSLQLNSVTPEDTAVYYCARGGSGVMDVWGQGTLVTVSS
VL: DIQMTQSPSSLSASVGDRVTITCRASQSITNYLNWYQQKPGKAPKLLIYDVSNLQSGVPSRFSGSGSGTDFTLTISSLQPEDFAVYYCQQYSGYPLTFGQGTKVEIKR
notes: as for B1
For B5, the binding result in assay [1] was “binds”.

B6: TP-3C3 (Fab, V domains shown)
VH: B1 VH with S37G, I52V, K55Y, W102A, H103R, S104A, D105K, H107S, W108G
VL: B5 VL with T30N, N31P, D50A, V51A, Y91L, S92D, G93N, Y94R, P95S, L96I
notes: as for B1
Turning to B6, the binding result in assay [1] is reported as “binds”.

B7: TP-3G3 (Fab, V domains shown)
VH: QVQLVESGGGLVQPGGSLRLSCAASGFTFSSYSMSWVRQAPGKGLEWVSSISSSSSNTYYGDSVKGRFTISRDNSKNTLYLQMNSLRAEDTAVYYCARMHYKGMDIWGQGTLVTVSS
VL: B5 VL with S28N, T30H, N31S, Y32H, V51A, N53S, S92Y, G93D
notes: as for B1
For B7, in assay [1], the binding result was “binds”.

B8: 2G6-IgG (antibody, V domains shown)
VH: B5 VH with M52I, H62D, G102H, G103S, S104M, G105V, V106G, M107F
VL: DIVLTQSPATLSLSPGERATLSCRASQYVTSSYLAWYQQKPGQAPRLLIYGSSRATGVPARFSGSGSGTDFTLTISSLEPEDFATYYCQQYSSSPITFGQGTKVEIKR
notes: also called IgG-2G6; TP-2G6 after conversion to IgG
Regarding B8, in assay [2], it took 0.51 nM to reach a half-maximal effect (EC50) and the “fold improvement of EC50 against 2G6-Fab” value came to 10 fold. Besides, in assay [3], the EC50 amounted to 0.22 nM and the “fold improvement of EC50 against 2G6-Fab” value came out at 2 fold.

B9: TP-2G6 (Fab, V domains shown)
VH: B5 VH with M52I, H62D, G102H, G103S, S104M, G105V, V106G, M107F
VL: B8 VL
notes: HuCAL Gold human Fab from E. coli TG1; also called 2G6-Fab
B9: the values for the concentration for a half-maximal effect (EC50) in assay [2] and in assay [3] were 5.18 nM and 0.48 nM, respectively.

B10: TP-2B1 (Fab, V domains shown)
VH: QVQLVESGGGLVQPGGSLRLSCAASGFTFSSYSMSWVRQASGKGLEWVSSIKGSGSNTYYADSVKGRFTISRDNSKNTLYLQMNSLRAEDTAVYYCARNGGLIDVWGQGTLVTVSS
VL: DIELTQPPSVSVAPGQTARISCSGDNLGNKYAHWYQQKPGQAPVLVIYYDNKRPSGIPERFSGSNSGNTATLTISGTQAEDEADYYCQSWTPGSNTMVFGGGTRLTVLG
notes: as for B1
As to B10, in assay [1], the binding result was “binds”.

B11: TP-2A10 (Fab, V domains shown)
VH: QVQLVESGGGLVQPGGSLRLSCAASGFTFTSYSMNWVRQAPGKGLEWVSAISYTGSNTHYADSVKGRFTISRDNSKNTLYLQMNSLRAEDTAVYYCARAFLGYKESYFDIWGQGTLVTVSS
VL: DIELTQPPSVSVAPGQTARISCSGDKLGKKYVHWYQQKPGQAPVLVIYGDDKRPSGIPERFSGSNSGNTATLTISGTQAEDEADYYCQAWGSISRFVFGGGTKLTVLG
notes: as for B1
B11: in assay [1], the binding result is “binds”.

B12: TP-3G1 (Fab, V domains shown)
VH: QVQLQQSGPGLVKPSQTLSLTCAISGDSVSSNSGGWGWIRQSPGRGLEWLGLIYYRSKWYNAYAVSVKSRITINPDTSKNQFSLQLNSVTPEDTAVYYCARYLGSNFYVYSDVWGQGTLVTVSS
VL: DIQMTQSPSSLSASVGDRVTITCRASQGISSYLHWYQQKPGKAPKLLIYGASTLQSGVPSRFSGSGSGTDFTLTISSLQPEDFATYYCQQQNGYPFTFGQGTKVEIKR
notes: as for B1
Turning to B12, in assay [1], the binding result was “binds”.

B13: TP-3B3 (Fab, V domains shown)
VH: QVQLVESGGGLVQPGGSLRLSCAASGFTFSSYGMHWVRQAPGKGLEWVSNISYMGSNTNYADSVKGRFTISRDNSKNTLYLQMNSLRAEDTAVYYCARGLFPGYFDYWGQGTLVTVSS
VL: DIELTQPASVSVAPGQTARISCSGDNLRSKYAHWYQQKPGQAPVLVIYGDNNRPSGIPERFSGSNSGNTATLTISGTQAEDEADYYCSAYAMGSSPVFGGGTKLTVLG
notes: as for B1
As for B13, the binding result in assay [1] was “binds”.

B14: TP-2B3 (Fab, V domains shown)
VH: QVQLQQSGPGLVKPSQTLSLTCAISGDSVSSNSAAWGWIRQSPGRGLEWLGMIYYRSKWYNSYAVSVKSRITINPDTSKNQFSLQLNSVTPEDTAVYYCARTMSKYGGPGMDVWGQGTLVTVSS
VL: DIVLTQSPATLSLSPGERATLSCRASQNIGSNYLAWYQQKPGQAPRLLIYGASTRATGVPARFNGSGSGTDFTLTISSLEPEDFAVYYCQQLNSIPVTFGQGTKVEIKR
notes: as for B1
For the molecule B14, in assay [1], the binding result is given as “binds”.

B15: TP-2B8 (Fab, V domains shown)
VH: QVQLVQSGAEVKKPGASVKVSCKASGYTFTGNSMHWVRQAPGQGLEWMGTIFPYDGTTKYAQKFQGRVTMTRDTSISTAYMELSSLRSEDTAVYYCARGVHSYFDYWGQGTLVTVSS
VL: DIELTQPPSVSVAPGQTARISCSGDNLRGYYASWYQQKPGQAPVLVIYEDNNRPSGIPERFSGSNSGNTATLTISGTQAEDEADYYCQSWDSPYVHVFGGGTKLTVLG
notes: as for B1
B15: in assay [1], the binding result is given as “binds”.

B16: TP-2A8 (Fab, V domains shown)
VH: QVQLVESGGGLVQPGGSLRLSCAASGFTFRSYGMSWVRQAPGKGLEWVSSIRGSSSSTYYADSVKGRFTISRDNSKNTLYLQMNSLRAEDTAVYYCARKYRYWFDYWGQGTLVTVSS
VL: DIELTQPPSVSVAPGQTARISCSGDNLRNYYAHWYQQKPGQAPVVVIYYDNNRPSGIPERFSGSNSGNTATLTISGTQAEDEADYYCQSWDDGVPVFGGGTKLTVLG
notes: HuCAL Gold human Fab from E. coli TG1; also called Fab-2A8; TP-2A8-Fab
On to B16, for which, in assay [1], the binding result is on record as “binds”.

B17: TP-3C1 (Fab, V domains shown)
VH: QVQLVESGGGLVQPGGSLRLSCAASGFTFSSYSMHWVRQAPGKGLEWVSGISYSSSFTYYADSVKGRFTISRDNSKNTLYLQMNSLRAEDTAVYYCARALGGGVDYWGQGTLVTVSS
VL: DIALTQPASVSGSPGQSITISCTGTSSDLGGFNTVSWYQQHPGKAPKLMIYSVSSRPSGVSNRFSGSKSGNTASLTISGLQAEDEADYYCQSYDLNNLVFGGGTKLTVLG
notes: HuCAL Gold human Fab from E. coli TG1; Shares its VL entry with TP-2G9 and its VH entry with TP-3F2, as the legends print it
With B17, the binding result in assay [1] is “binds”.

B18: TP-3F2 (Fab, V domains shown)
VH: B17 VH
VL: DIELTQPPSVSVAPGQTARISCSGDNLPSKSVYWYQQKPGQAPVLVIYGDNNRPSGIPERFSGSNSGNTATLTISGTQAEDEADYYCQSWTSRPMVVFGGGTKLTVLG
notes: as for B1
For B18, the binding result in assay [1] is “binds”.

B19: TP-2B4 (Fab, V domains shown)
VH: QVQLVESGGGLVQPGGSLRLSCAASGFTFSNYSMTWVRQAPGKGLEWVSGISYNGSNTYYADSVKGRFTISRDNSKNTLYLQMNSLRAEDTAVYYCARIYYMNLLAGWGQGTLVTVSS
VL: DIELTQPPSVSVAPGQTARISCSGDALGTYYAYWYQQKPGQAPVLVIYGDMNRPSGIPERFSGSNSGNTATLTISGTQAEDEADYYCQSYDAGVKPAVFGGGTKLTVLG
notes: as for B1
Take B19: the binding result in assay [1] is “binds”.
